Numbering of substitutions follows the chain as printed.
B1: AbG-AAA (antibody, V domains shown)
VH: EVQLQESGPGLVKPSQTLSLTCTVSGYSISNDFAWNWIRQLPGKGLEWMGYISYKGNTRYQPSLKSRITISRDTSKNQFFLKLNSVTAADTATYYCVTASRGLPYWGQGTLVTVSS
VL: DIQMTQSPSSMSVSVGDRVTITCHSSQDITYNIGWLQQKPGKSFKGLIYHGANLDDGVPSRFSGSGSGTDYTLTISSLQPEDFATYYCVQYDEFPWTFGGGTKLEIKR
modifications: synthon AAA on reduced interchain Cys
B2: AbG-AAD (antibody, V domains shown)
VH: B1 VH
VL: B1 VL
modifications: synthon AAD on reduced interchain Cys
B3: AbK-CZ (antibody, V domains shown)
VH: B1 VH with N31R, L41P, K55N, L103F, Y105W
VL: B1 VL with I33V, A52S, D56H, E93D
modifications: synthon CZ on reduced interchain Cys
B4: AbK-TX (antibody, V domains shown)
VH: B1 VH with N31R, L41P, K55N, L103F, Y105W
VL: B1 VL with I33V, A52S, D56H, E93D
modifications: synthon TX on reduced interchain Cys
B5: AbK-TV (antibody, V domains shown)
VH: B1 VH with N31R, L41P, K55N, L103F, Y105W
VL: B1 VL with I33V, A52S, D56H, E93D
modifications: synthon TV on reduced interchain Cys
B6: AbK-YY (antibody, V domains shown)
VH: B1 VH with N31R, L41P, K55N, L103F, Y105W
VL: B1 VL with I33V, A52S, D56H, E93D
modifications: synthon YY on reduced interchain Cys
B7: AbK-AAA (antibody, V domains shown)
VH: B1 VH with N31R, L41P, K55N, L103F, Y105W
VL: B1 VL with I33V, A52S, D56H, E93D
modifications: synthon AAA on reduced interchain Cys
B8: AbK-AAD (antibody, V domains shown)
VH: B1 VH with N31R, L41P, K55N, L103F, Y105W
VL: B1 VL with I33V, A52S, D56H, E93D
modifications: synthon AAD on reduced interchain Cys
B9: AbA-TV (antibody, V domains shown)
VH: B1 VH with N31R, L41P, K55N, L103F
VL: B1 VL with T30N, Y31S, A52T, D92A, E93Q
modifications: synthon TV on reduced interchain Cys
B10: AbA-WD (antibody, V domains shown)
VH: B1 VH with N31R, L41P, K55N, L103F
VL: B1 VL with T30N, Y31S, A52T, D92A, E93Q
modifications: synthon WD on reduced interchain Cys
B11: AbA-LB (antibody, V domains shown)
VH: B1 VH with N31R, L41P, K55N, L103F
VL: B1 VL with T30N, Y31S, A52T, D92A, E93Q
modifications: synthon LB on reduced interchain Cys
B12: AbB-WD (antibody, V domains shown)
VH: B1 VH with L41P, L103F, Y105W
VL: B1 VL with T30N, Y31S, A52T, D92A, E93Q
modifications: synthon WD on reduced interchain Cys
B13: AbB-LB (antibody, V domains shown)
VH: B1 VH with L41P, L103F, Y105W
VL: B1 VL with T30N, Y31S, A52T, D92A, E93Q
modifications: synthon LB on reduced interchain Cys
B14: AbG-WD (antibody, V domains shown)
VH: B1 VH
VL: B1 VL
modifications: synthon WD on reduced interchain Cys
B15: AbG-LB (antibody, V domains shown)
VH: B1 VH
VL: B1 VL
modifications: synthon LB on reduced interchain Cys
B16: AbK-WD (antibody, V domains shown)
VH: B1 VH with N31R, L41P, K55N, L103F, Y105W
VL: B1 VL with I33V, A52S, D56H, E93D
modifications: synthon WD on reduced interchain Cys
B17: AbK-LB (antibody, V domains shown)
VH: B1 VH with N31R, L41P, K55N, L103F, Y105W
VL: B1 VL with I33V, A52S, D56H, E93D
modifications: synthon LB on reduced interchain Cys
B18: AbA-ZT (antibody, V domains shown)
VH: B1 VH with N31R, L41P, K55N, L103F
VL: B1 VL with T30N, Y31S, A52T, D92A, E93Q
modifications: synthon ZT on reduced interchain Cys
B19: AbA-ZZ (antibody, V domains shown)
VH: B1 VH with N31R, L41P, K55N, L103F
VL: B1 VL with T30N, Y31S, A52T, D92A, E93Q
modifications: synthon ZZ on reduced interchain Cys

Biological target: human Epidermal Growth Factor Receptor (huEGFR) over-expressed in mcl-1-/- mouse embryonic fibroblasts (human, UniProt P00533 25-1210)
Assay: cell-based or functional assay

Binder	huEGFR^+ mcl-1^-/- MEF EC50
B1	220 nM
B2	108 nM
B3	0.1 nM
B4	0.79 nM
B5	0.15 nM
B6	47 nM
B7	3.4 nM
B8	0.4 nM
B9	3 nM
B10	304 nM
B11	27 nM
B12	23 nM
B13	31 nM
B14	5.8 nM
B15	24 nM
B16	35 nM
B17	17 nM
B18	104 nM
B19	186 nM

From patent US20190153108A1 (AbbVie / Abbott, published 2019)
